Assay [1] concerns the target T1, Recombinant human VEGFA (Sino Biological, catalog number 11066-HNAB) (human).
T1 construct: also called VEGF antigen; Human/Cynomolgus VEGF/VEGFA/VEGF165 Protein
T1 chain: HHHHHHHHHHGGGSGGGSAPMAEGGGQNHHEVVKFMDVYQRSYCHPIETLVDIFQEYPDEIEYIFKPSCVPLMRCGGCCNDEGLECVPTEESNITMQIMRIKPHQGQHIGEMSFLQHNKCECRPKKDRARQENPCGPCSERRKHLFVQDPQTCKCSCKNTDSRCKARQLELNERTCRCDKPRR
Kind of assay: competitive ELISA, VEGFA coated, competitor biotinylated VEGFR2 at 0.3 µg/mL (FIG. 8b). On the technique in general: An ELISA detects its analyte on a solid surface through an enzyme-linked reagent.

In assay [2] the target is T2, Recombinant human PD-1 (prepared by Suzhou Junmeng Biopharm Co., Ltd. according to the sequence of NCBI … (human, UniProt Q15116 25-170, limits assumed)).
T2 construct: Soluble recombinant protein used in BLI and coated in ELISA; also called antigen PD-1
Kind of assay: competitive ELISA, PD-1 coated, competitor Biotin-PD-L1 hFc at 4.0 µg/mL (FIG. 9b).

The target in assay [3] is T1, Recombinant human VEGFA (Sino …). Kind of assay: BLI (Octet RED96e), told of the group.
The target of assay [4] is T2, Recombinant human PD-1 (prepared by …). Kind of assay: competitive ELISA against PD-L1 hFc on coated PD-1, relative to TAB001 (JS001) control.
Assay [5] concerns the target T1, Recombinant human VEGFA (Sino …). The experiment in a line: indirect ELISA on coated human VEGFA, relative to Avastin control.
Assay [6] shares this target. The experiment in a line: indirect ELISA, human VEGFA coated at 0.5 µg/mL (FIG. 7b).
The target in assay [7] is T2, Recombinant human PD-1 (prepared by …). Kind of assay: indirect ELISA, human PD-1 coated at 0.3 µg/mL (FIG. 6b).
For assay [8] the target is unchanged. Kind of assay: indirect ELISA on coated human PD-1, relative to TAB001 (JS001) control.
The target is the same in assay [9]. Kind of assay: BLI (Octet RED96e), antibody captured at 5 µg/mL, PD-1 at 210 and 70 nM. On the technique in general: Biolayer interferometry detects binding as a change in optical thickness at a sensor tip.
In assay [10] the target is T1, Recombinant human VEGFA (Sino …). Kind of assay: BLI (Octet), antibody captured at 5 µg/mL, VEGFA at 25 and 12.5 nM.
Assay [11] has the same target. Kind of assay: cell-based or functional assay.
The target in assay [12] is Human PD-1 on the cell surface (Jurkat PD-1 effector cells, Promega); CD4 T cells in the mixed lymphocyte … (human, UniProt Q15116 25-288). The experiment in a line: cell-based or functional assay.
For assay [13], the target named is T1, Recombinant human VEGFA (Sino …). Kind of assay: competitive ELISA against VEGFR2 on coated VEGFA, relative to Avastin control.

Broadly, the IC50 is the midpoint of a concentration-inhibition curve. A word on the Kd: it is the free concentration of one partner at which half of the binding sites on the other are occupied at equilibrium, for simple one-to-one binding. A word on the EC50: it is the midpoint of the concentration-response curve. Usually koff stands for the rate constant with which the complex falls apart. Broadly, the kon is a measure of how fast the partners come together.

B1: Bispecific antibody molecule 28 (bispecific antibody, human IgG4 S228P, kappa)
light: EVQLVESGGGLVQPGGSLRLSCAISGFSLAATDIDWVRQAPGKGLEWVARIFSPSDFTDYADSVKGRFTISADTSKNTVYLQMNSLRAEDTAVYYCGRPDTYAYNIFLDTPTYNALHYRGQGTLVTVSSGGGGSGGGGSGGGGSDVVMTQSPLSLPVTLGQPASISCRSSQSIVHSNGNTYLEWYLQKPGQSPQLLIYKVSNRFSGVPDRFSGSGSGTDFTLKISRVEAEDVGVYYCFQGSHVPLTFGQGTKLEIKRTVAAPSVFIFPPSDEQLKSGTASVVCLLNNFYPREAKVQWKVDNALQSGNSQESVTEQDSKDSTYSLSSTLTLSKADYEKHKVYACEVTHQGLSSPVTKSFNRGEC
heavy: not shown
notes: Anti-PD-1 IgG4 (JS001) with the anti-VEGF VHH at the N-terminus of each light chain; also called Antibody 28; antibody 28 (IgG4)
With B1, the IC50 in [1] is 1860 nM; in [2] it was 573 nM. In addition, the Kd in assay [3] was less than 0.5 nM; in assay [9], 1.67 nM; in [10] it was 0.0147 nM. The “Relative binding activity (%)” value in [4] was 45%; in [5] it was 57%; in [8] it was 31%; in assay [13], 163%. In addition, the EC50 in [6] was 6.17 nM; in assay [7] it was 59.5 nM. Besides, the koff in assay [9] came out at 5.96e-05 s⁻¹; in assay [10] it was 1.88e-05 s⁻¹. In addition, the kon came to 35800 M⁻¹ s⁻¹ in assay [9] and 1.28e+06 M⁻¹ s⁻¹ in assay [10]. Moreover, in assay [11], the “IC50, VEGFA-induced proliferation of HUVEC cells” value was found to be 150 nM. In addition, in assay [12], the “EC50, PD-1/PD-L1 luciferase reporter gene system (Jurkat PD-1 / CHO PD-L1)” value stood at 26.1 nM.

For the origin of these results see patent EP4717714A1 (Shanghai Junshi Biosciences Co., Ltd., dated 2026).
